# Reference: the nanobody polyreactivity screen of Harvey et al. (2022)
# Assay: yeast display, Sf9 membrane polyspecificity reagent, FACS + sequencing; frameworks hold sequencing errors
# In short: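 Galactose-induced (36–48 hours) yeast carrying a synthetic nanobody display library were exposed to 10% biotinylated, detergent-solubilized Sf9 membrane reagent at 4 °C for 1 hour. FACS followed streptavidin microbead enrichment, using low and high (top ~1%) gates for expression (anti-HA) and reagent binding (streptavidin). Colony PCR, MiSeq 2 × 250 sequencing and CDR-length filtering followed. Labels for polyreactivity reflect the gate of origin.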
row,Sequence,polyreactivity (PSR sort gate)
1,QVQLVESGGGLVQAGGSLRLSCAASAFTFKYNVMGWYRQAPGTERELLAAISKRGGNTYYADSVKGRFTISRDNAKNTVYLQMNSLKPEDTAVYYCAADPTSPETSGQGYDYWGQGTQVTVSS,high polyreactivity
2,QVQLVESGGGLVQAGGSLRLSCAASAFTFYTNAMGWYRQAPGKERELVAAISGGGSTKYADSVKGRFTISRDNAKNTVYLQMNSLKPEDTAVYYCAAQIKWGYRRNRHDYWGQGTQVTVSS,high polyreactivity
3,QVQLVESGGGLVQAGGSLRLSCAASAITVKRDVMGWYRQAPGKERELVAAISRTGGSTYYADSVKGRFTISRDNAKNTVYLQMNSLKPEDTAVYYCAAATCPGIYDYWGQGTQVTVSS,high polyreactivity
4,QVQLVESGGGLVQAGGSLRLSCAASALTFQAYTMGWYRQAPGKERELDAAISRNGGRTYYADSVKGRFTISRDNAKNTVYLQMNSLKPEDTAVYYCAAVHFVVSPGRGDDYWGQCTQVTVSS,high polyreactivity
5,QVQLVESGGGLVQAGGSLRLSCAASALTLRHYAMGWYRQAPGKERELVARIRISGRTYYADSVKGRFTISRDNAKNTVYLQMNSLKPEDTAVYYCAKVQFATSPPGLTLSYYYWGQGTQVTVSS,high polyreactivity
6,QVQLVESGGGLVQAGGSLRLSCAASANTFPTNAMGWYRQAPGKEMELVATISLGAGSTHYADSVKVRFTISRDNAKNTVYLQMNSLTPEDTAVYYCAARSRRWYDYDYWGQGTQVTVSS,low polyreactivity
7,QVQLVESGGGLVQAGGSLRLSCAASARIFRYYAMGWYRQAPGKERELVAGISWRGSSTYYADSVKGRFTISRDNAKNTVYLQMNSLKPEDTAVYYCNRDQSNIPVTGGRFYYWRQGTQVTVSS,high polyreactivity
8,QVQLVESGGGLVQAGGSLRLSCAASARTLAHYTMGWYRQAPGKERELVAAITFSGGRTYYADSVKGRFTISRDTAKNTVYLQMNSLKPEDTAVYYCNADGYWVVPLDDSYEYWGQGTQVTVSS,low polyreactivity
9,QVQLVESGGGLVQAGGSLRLSCAASASIFASNAMGLYRQAPGKERELVAAINSADSTNYADSVKGRFRISRDNAKNTVYLQMNRLKPEDPAVFYCARGLEERYDYWGLGTQVTVSS,low polyreactivity
10,QVQLVESGGGLVQAGGSLRLSCAASASIFDHYAMGCYRQAPGKARELVAAITWDGTSTYYADSVKGRFTISRDNAKNTVYLQMNSLKPEDTAVYYCADDFYPYSWEEVDYWGQGTQVTVSS,low polyreactivity
11,QVQLVESGGGLVQAGGSLRLSCAASASIFVNNAKGWYRQATGKERELVAAISSRSSRTIYADSVKGRFTISRDNAKKTVYLQMNSLKPEDTAVYYCAVKKRAPDGDYWGQGTQVTVSS,high polyreactivity
12,QVQLVESGGGLVQAGGSLRLSCAASASIYFPYTMGWYRQAPGKERELVARISLGGGRTYYADSVKGRFTISRDNAKNTVYLQMNSLKPEDTAVYYCAAVYYYGKWSYGYWIYEYWGQGTQVTVSS,high polyreactivity
13,QVQLVESGGGLVQAGGSLRLSCAASASTFGGYVMARYRQAPGKERELVAAISGNGASTTYADSVKGRFTISRDNAKNTVYLQMNSLKPEDTAVYDSAALFRKAHSDYDYWGQGTQVTVSS,low polyreactivity
14,QVQLVESGGGLVQAGGSLRLSCAASCVRNAMGWYRQAPGKERELVAAITSGGNTNYADSVKGRFTISRDNAKNTVYLQMNSLKPEDTAVYYCAKDLLYYTQQGTGVVDYDYWGQGTQVTVSS,low polyreactivity
15,QVQLVESGGGLVQAGGSLRLSCAASDAMGWYRRAPGKERELVASISNGVSTNYADSVKGRFTISRDNAKNTVYLQMNSLKPEVTAVYYCASDAKTVGRDDLYWYEVEFDYWGQGTQVSVSS,low polyreactivity
16,QVQLVESGGGLVQAGGSLRLSCAASESIFVRNAMGWYRQAPGKERELVASITYSGSRTYYADSVKGRFTISRDNAKNTVYLQMNRLKPEDTAVYYCAKVRVLVDKWSTFYEYYYWVQGTQVTVSS,low polyreactivity
17,QVQLVESGGGLVQAGGSLRLSCAASGAIFDWYAMGGDRPAPGKERELVADITWSGDSTYYADSVKGRFTISRDHAKNTVYLKMNSLKPEDTAVFYCAADIWFYTYYEYDYWGQGTQVTVSS,high polyreactivity
18,QVQLVESGGGLVQAGGSLRLSCAASGAIFFFNAMGWYRQAPGKEREFVAAITSSSGRTYYADSVKGRFTISRDNAKNSVYLQMNSLKPEDTAVYSCDADWAWLQWAYDYWGQGTKVTVSS,low polyreactivity
19,QVQLVESGGGLVQAGGSLRLSCAASGAIFGGYAMGWYRQAPGKERELVAAISSGGSTNYADSVKGRFTISRDNAKNTVYLQMNSLKPEDTAVYYCAVRGRLPHARQRGYVPKYYYWGQGTQVTVSS,high polyreactivity
20,QVQLVESGGGLVQAGGSLRLSCAASGCTFPLYLMGWYRQAPGKERELVAAIDWSGGSTYYADSVKGRFTISRDNAKNTVYLQMNSLKPEDTAVYYCAARYTSLRNYGYDYWGQGTQVTVSS,low polyreactivity
21,QVQLVESGGGLVQAGGSLRLSCAASGDISYIYAMGWYRQAPGKEREMVADISSSVGNTYYADSVKGRFTISRDNAKNTVYLQMNSLKPEDTAVYYCNADYVQPTESGGTYDYWGQGTQVTVSS,low polyreactivity
22,QVQLVESGGGLVQAGGSLRLSCAASGDIYDAYAMGWYRQAPGKERELVAAISRSGGSTYYSDSVKGRFTISRDNAKNTVYLLMNSLKPEDTAVYYCATRFSRRYVRYDYWGQGTQVTVSS,high polyreactivity

row,Sequence,polyreactivity (PSR sort gate)
1,QVQLVESGGGLVQAGGSLRLSCAASGDTFPKYAMGWYRQAPGKERELVAAITKRGGRTYYADSVKGRFTISRDNAKNTVYLQMNRVKPEDTAVYYCAVDLDGPEYSQVHYDYWGQGTQVTVSS,high polyreactivity
2,QVQLVESGGGLVQAGGSLRLSCAASGFAFSYYAMGWYRQAPGKEREFVASIDWSGGSTYYADSVKGRFTISRDNAKNIVYLQMNSLKPEDTAVYYCAAELDYFPGYDYWGQGTQVTVSS,low polyreactivity
3,QVQLVESGGGLVQAGGSLRLSCAASGFIFADYAMGWYRQAHGKERELVAAITRSGGRTYYADSVKGRFTISRDTAKNTVYVQMNSLKPDDTAVYYCNAGYAHTYDYWGQGTQVTVSS,high polyreactivity
4,QVQLVESGGGLVQAGGSLRLSCAASGFIFAEYAMGWYRQAPGKERELVATINIGGSTYYADSVKGRFTISRDNAKNTVYLQMTSLKPEDTAVYYCAAEFWWGDGSQGIYDYDYWGQGTQVSVSS,low polyreactivity
5,QVQLVESGGGLVQAGGSLRLSCAASGFIFAGYAMGWYRQAPGKERELVAAISGSGGRTYYADSVKGRFTISRDNAKNTVYLQMNSLKPEDTAVYYCNAGKQYRYDWGQGTQVTVSS,high polyreactivity
6,QVQLVESGGGLVQAGGSLRLSCAASGFIFAPNAMGWYRQAPGKERELVAAISHSGASTFYADSVKGRFTISRDNAKNTVYLQMNSLKPEDTAVYYCAAPPYYSYDYWGQGTQVTVSS,low polyreactivity
7,QVQLVESGGGLVQAGGSLRLSCAASGFIFAPYAMGWYRQAPGKEREFVASITYGSDSTYYADSVKGRFTISRDNAKNTVYLQMNSLKPEDTAVYYCNREGWHYGPYGYWGQGTQVTVSS,low polyreactivity
8,QVQLVESGGGLVQAGGSLRLSCAASGFIFARNTMGWYRQAPGKERELVAAITKSGGSTNYADSVKGRFTISRDNAKNTVYLQMNSLKPEDTAVYYCAARTYTLRGVYFSGYNYWGQGTQVTVSS,low polyreactivity
9,QVQLVESGGGLVQAGGSLRLSCAASGFIFARYAMGWYRQAPGKERELVARITTGDSTYYADSVKGRFTISRDNAKNTVYLQMNSLKPEDTAVYYCAADDNVSVVGLYYWGQGTQVTVSS,low polyreactivity
10,QVQLVESGGGLVQAGGSLRLSCAASGFIFARYAMGWYRQAPGKERELVATISKSGGRTYYADSVKGRFTISRDNAKNTVYLQMNSLKPEDTAVYYCATRYSTTSPGDDYWGQGTQVTVSS,high polyreactivity
11,QVQLVESGGGLVQAGGSLRLSCAASGFIFASYAMGWYRQAPVKERELVAAISSCGGRTYYADSVKGRFTISRDNAKNTVNLQMNSLKPEDTAVYYCAADWRFTYDYWGQGTQVTVSS,high polyreactivity
12,QVQLVESGGGLVQAGGSLRLSCAASGFIFASYAMGWYRQATGKERELVAAITQSGGITYYADSVKGRFTISRDNAKNTVYLQMNSLKPEDTAVYYCNTPLMKRTTRGRERNYWGQGTQVTVSS,low polyreactivity
13,QVQLVESGGGLVQAGGSLRLSCAASGFIFASYTMGWYRQAPGKERELVASISRRRGSTYYADSVKGRFTISRDIAKNTVYLQMNILKPEDTAVYYCAAERLTIDYDYWGQGTQVTVSS,high polyreactivity
14,QVQLVESGGGLVQAGGSLRLSCAASGFIFATNAMGWYIQAPGKERELVAAITWSGATTYYADSVKGRFTISRDNAKNTVYLQMNSLKPEDTAVYYCAARRYVYGSPYSTYRYGYWGQGTQVTVSS,high polyreactivity
15,QVQLVESGGGLVQAGGSLRLSCAASGFIFATNPMGWYRQAPGKERELVAASSTYYADSVKGRFTISRDNAKNTVYLQMNSLKPEDTAVYYCNADRDSYIGFVDWAGEYWGQGTQVTVSS,low polyreactivity
16,QVQLVESGGGLVQAGGSLRLSCAASGFIFATYAMGWYRQAPGKDRELVAAISRSGGSTYYADSVKGRFTISRDTAKNTVYSQMNCLKPEDTAVYYCAADSDPAPPDYDYWGQGTQVTVSS,high polyreactivity
17,QVQLVESGGGLVQAGGSLRLSCAASGFIFATYDMGWYRQAPGKERELVAAIDSDGSTNYADSVKGRYTISRDNAKNTVYLQMNSLKPEDTEVYYCAADRFQWGFWWLEYWGQGTQVTVSS,high polyreactivity
18,QVQLVESGGGLVQAGGSLRLSCAASGFIFATYVMGWYRQAPGKERELVAAISWSGSSTFYADSVKGRFTISRDNAKNTVYLQMNSLKPEDTAVYYCAALGDYVGNDYWGQGTQVTVSS,high polyreactivity
19,QVQLVESGGGLVQAGGSLRLSCAASGFIFAYNAMGWYRQAPGKERELVAAISIDTSTYYADSVKGRFTISRDNAKNTVYLQMNSLKPEDTAVYYCAADHVPFRLTELYYWGQGTQVTVSS,low polyreactivity
20,QVQLVESGGGLVQAGGSLRLSCAASGFIFAYYAMGWYRQAPGKERELVAAISSSGGRTYYADSVKGRFTISRDNAKNTVYLQMNSLQPEDTAVYYCAATLSYYVGVRYDYWGQGTQVTVSS,high polyreactivity
21,QVQLVESGGGLVQAGGSLRLSCAASGFIFAYYAMGWYRQAPGKERELVAAITIDGSTNYADSVKGRFTISRDNAKNTVYVQMNSLKPEDSAVYYCAAAEHPPVWYGYWGQGTQVTVSS,low polyreactivity
